Data as given in patent US20050079613.

Tested on: three human E2 enzymes UbCH2, UbCH3 and UbCH5a (at least one of these three enzymes)

GST fusion of the MARCH-VIII RING-CH domain
formation of high-molecular weight ubiquitin complexes in vitro (anti-ubiquitin blot): The RiNG-CH-GST fusion proteins of all four MARCH-proteins tested were able to catalyze the formation of high-molecular weight molecular ubiquitin complexes in the presence of at least one of these three enzymes
